Laboratory results as given in patent US20210162028A1, “Methods for Inducing Intermittent Fasting and Modulating Autophagy” (The Hong Kong Polytechnic University, priority 2019, published 2021).
“Also recorded” adds a separate entry of the source.

Legend:
Type in all cases: in vivo, mouse
[1] = Survival of very old mice; settings: 25-month old C57BL/6J male mice on chow diet; weekly for 30 weeks; vehicle 20%
From the text: Specific autophagy upregulation in Caenorhabditis elegans and Drosophila extends lifespan, and drugs that induce autophagy, such as rapamycin, promote longevity in rodents (Hansen et al., Nature Reviews Molecular Cell Biology. 2018; 19:579-593). For C57BL/6J mice, over 24 months of age can be considered “very old” and survivorship drops off markedly (https://www.jax.org/news-and-insights/jax-blog/2017/november/when-are-mice-considered-old). To determine whether N-ABD094-rhArg (SEQ ID NO: 50), which induces systemic upregulation of autophagy, can increase longevity, very old C57BL/6J male mice at 25 months of age (equivalent to seventy in humans) fed an ordinary chow diet were separated into 2 groups. One group was treated once weekly with 600 U N-ABD094-rhArg (SEQ ID NO: 50) [CD Very Old (rhArg) group] for 30 weeks while another group was treated with vehicle [CD Very Old (vehicle) group]. A group of C57BL/6J male mice at 7 months of age (equivalent to early thirties in humans) treated with vehicle [CD Young (vehicle) group] served as the reference of progressive changes from mature adult to late middle age over the 30-week period.

hepatocyte = test: Transmission electron microscopy of liver (hepatocytes); settings: for TEM of liver: autophagosomes / TEM of liver: lipid droplets: DIO C57BL/6J male mice on HFD, 3 weeks, Day 3
From the text: FIG. 47 illustrates the liver examined by transmission electron microscopy at Day 1, Day 3, Day 5 and Day 7 of the 7-day intermittent after N-ABD094-rhArg injection.
The presence of autophagosome in liver after treatment for 3 weeks were examined by TEM (FIGS. 62, 63 and 64).
The presence of autophagosome in liver after treatment for 3 weeks were examined by transmission electron microscopy (FIGS. 71 and 72).

[2] = Blood pressure and heart rate by tail-cuff method; settings: DIO C57BL/6J male mice on HFD; about 600 U once a week; measured at 12 and 27 weeks
From the text: FIG. 9 illustrates that administration of N-ABD094-rhArg (SEQ ID NO: 50) to DIO male mice fed a HFD [HFD (rhArg) group] in FIG. 1 for 34 weeks could reduce heart mass, and lower blood pressure and heart rate to levels similar to that of the lean control mice [CD (vehicle) group]. (A) Heart mass. (B-E) Systolic and diastolic blood pressure (B, D) and heart rate (C, E) measured respectively at 12 weeks (B, C) and 27 weeks (D, E) after rhArg treatment by tail-cuff method using Noninvasive Blood Pressure Monitoring System (CODA Scientific). *P<0.05, one-way ANOVA followed by Bonferroni test. Data are expressed as mean±SEM.
Other than liver, obesity is also commonly associated with lipid accumulation in the kidney (renal steatosis) and heart (cardiac steatosis), causing lipotoxicity and dysfunction of these organs. Indeed, there was an increase in kidney and heart mass in DIO mice treated with vehicle (FIG. 8A and FIG. 9A).

[3] = Whitening of brown adipose tissue (size, mass, H&E histology); settings: DIO C57BL/6J male mice on HFD; 600 U once a week, 12 weeks
From the text: FIG. 53 illustrates that administration of 600 U N-ABD094-rhArg (SEQ ID NO: 50) once a week to C57BL/6J male mice with pre-existing HFD-induced obesity [HFD (rhArg) group] for 12 weeks could effectively reverse whitening of brown adipose tissue (BAT), with lipids stored as a large single globule (characteristic feature of white adipocytes) changing to storage of lipids in multiple small droplets (characteristic feature of brown adipocytes), which was in line with the findings of induction of lipophagy observed by TEM. […] (B) The mass of iBAT of the 3 groups of mice was in line with the size shown in A. *P<0.05, one-way ANOVA followed by Bonferroni test. Data are expressed as mean±SEM, n=5 for each group.
After prolonged feeding on a HFD, there was a further increase in the size (FIG. 53A) and weight of the interscapular BAT (FIG. 53B) in vehicle-treated DIO mice [HFD (vehicle) group] in comparison to the lean control mice [CD (vehicle) group], which was correlated with the presence of massive amount of enlarged white-like unilobular cells (FIG. 53A). As observed under transmission electron microscopy, brown adipocyte in mice fed with HFD [HFD (vehicle) group] had massive enlarged lipid droplets (FIG. 52A). […] Many autophagosomes were actively forming and engulfing the lipid droplets (FIG. 52B). […]

[4] = Insulin tolerance test (ITT); settings: 17-month old C57BL/6J male mice on chow diet; once a week; at 13 weeks
[5] = 300 U/week rhArg and/or 300 mg/kg metformin
[6] = rhArg weekly and/or 0.33 mg RA daily
[7] = HFD-fed male mice, 600 U once a week, 4 weeks

B1: N-ABD094-rhArg: recombinant human arginase fused to albumin binding domain ABD094 (SEQ ID NO: 50); engineered long-acting arginine-depleting enzyme (protein)
chain: MHHHHHHDEAVDANSLAEAKEAANAELDSYGVSDFYKRLIDKAKTVEGVEALKDAILAALPSGSNNNNNNGSGGMSAKSRTIGIIGAPFSKGQPRGGVEEGPTVLRKAGLLEKLKEQECDVKDYGDLPFADIPNDSPFQIVKNPRSVGKASEQLAGKVAEVKKNGRISLVLGGDHSLAIGSISGHARVHPDLGVIWVDAHTDINTPLTTTSGNLHGQPVSFLLKELKGKIPDVPGFSWVTPCISAKDIVYIGLRDVDPGEHYILKTLGIKYFSMTEVDRLGIGKVMEETLSYLLGRKKRPIHLSFDVDGLDPSFTPATGTPVVGGLTYREGLYITEEIYKTGLLSGLDIMEVNPSLGKTPEEVTRTVNTAVAITLACFGLAREGNHKPIDYLNPPK
modifications: N-ABD094-rhArg, Synthesized in the Lab
notes: engineered long-acting arginine-depleting enzyme
- Survival rate [1]: 80%
- TEM of liver: autophagosomes (hepatocyte; [5]): autophagosome was rarely seen
- TEM of liver: lipid droplets (hepatocyte; [5]): significant decrease in lipid droplet size
- TEM of liver: autophagosomes (hepatocyte; 300 U/week rhArg and/or 300 mg/kg metformin, listed as N-ABD-rhArg (SEQ ID NO: 50)): no autophagosome is observed
- TEM of liver: autophagosomes (hepatocyte; [6]): autophagosome was rarely seen
- TEM of liver: lipid droplets (hepatocyte; [6]): significant decrease in lipid droplet size
- TEM of liver: autophagosomes (hepatocyte; rhArg weekly and/or 0.33 mg RA daily, listed as N-ABD-rhArg (SEQ ID NO: 50)): no autophagosome is observed
- TEM of liver, Day 1 of the 7-day cycle (hepatocyte; [7]): autophagosomes and autolysosomes were found in the hepatocye
- TEM of liver, Day 3 of the 7-day cycle (hepatocyte; [7]): extensive lipophagy was observed
- TEM of liver, Day 5 of the 7-day cycle (hepatocyte; [7]): autolysosome and lipophagy became rare
- TEM of liver, Day 7 of the 7-day cycle (hepatocyte; [7]): no autophagosome and no lipophagy was observed
- Blood pressure and heart rate [2]: levels similar to the age-matched lean control mice
- White-like unilobular cells in BAT (histology) [3]: almost complete remission of white-like unilobular cells
- Insulin sensitivity in ITT [4]: significantly improve insulin sensitivity; also recorded: effectively improve insulin sensitivity
